Here are results for one molecule from patent US9395368B2, “Methods, agents and peptides for inducing an immune response to matrix metalloproteinase-2 expressing tumors” (New York University, priority 2010, dated 2016).

The test system of the assay is IL-12p70 production by DCs. The assay is described as follows: IL-12p70 production by poly(I:C)-matured DCs (CBA). It is filed as cell-based, human. The procedure: Immature DCs were incubated with MMP-2 (0.5 μg/mL or 5 μg/mL) and poly(I:C)-matured 1 h later. IL-12 levels were measured 16 h later. (A) Results are represented as a percentage of IL-12p70 levels, measured by CBA, produced when DCs were incubated with poly(I:C) only (n=11). (B) For intracellular staining of IL-12p35 and IL-12p40 chains, Brefeldin A was added 4 h after poly(I:C) activation and cells were stained after an additional 12 h incubation. Numbers in the upper right quadrants are the percentages of each population for a representative donor (n=3). (C,D) Immature DCs were incubated with MMP-2 for 1 h (5 μg/mL) before poly(I:C) maturation. Intracellular staining of phosphorylated (Y701) STAT1 (P-STAT1) was performed 3 h later. A representative donor (C) and results for all 3 donors (D) are shown. […] (E) Immature DCs were incubated with MMP-2 and poly(I:C)-matured 1 h later. IFNβ levels were measured by ELISA 16 h later. Results are represented as a percentage of IFNβ levels produced when DCs were incubated with poly(I:C) only (n=9). (F,G) 10^6DCs/lane were treated with 0.1 μg MMP-2 or controls. Poly(I:C) was added 1 h later. IFNAR1 protein expression was detected the next day by Western blot analysis using a rabbit monoclonal antibody. A representative donor (F) and results for all 7 donors (G) are shown. (H) The rhIFNAR1 (5 μg; ≈110 kD) was incubated overnight with 0.3 μg MMP-2 before performing Western blot analysis for IFNAR1. The second band (around 90 kD) and the third band (25 kD) very likely correspond to either a degraded form of the protein still recognized by the antibody or a contaminant present in the commercial protein preparation and non-specifically recognized by the antibody. MMP-2 enzymatic activity was controlled (FIG. 13C-D). […]
Dendritic cell preparation and activation. […] Immature DCs were harvested on day 5 and matured using poly(I:C) at 5 μg/mL/10^6 DCs (Amersham) Secretion of IL-12p70, TNFα, IL-1β, IL-6, IL-8 and IL-10 was assessed on both immature and mature DCs using the Human Inflammatory Cytokine Cytometric Bead Array (BD Pharmingen).

B1: active MMP-2: Purified human MMP-2 (mixture of the proenzyme (50%) and the active form (50%)) purchased from Biomol (protein, listed as Homo sapiens)
chain: MEALMARGALTGPLRALCLLGCLLSHAAAAPSPIIKFPGDVAPKTDKELAVQYLNTFYGCPKESCNLFVLKDTLKKMQKFFGLPQTGDLDQNTIETMRKPRCGNPDVANYNFFPRKPKWDKNQITYRIIGYTPDLDPETVDDAFARAFQVWSDVTPLRFSRIHDGEADIMINFGRWEHGDGYPFDGKDGLLAHAFAPGTGVGGDSHFDDDELWTLGEGQVVRVKYGNADGEYCKFPFLFNGKEYNSCTDTGRSDGFLWCSTTYNFEKDGKYGFCPHEALFTMGGNAEGQPCKFPFRFQGTSYDSCTTEGRTDGYRWCGTTEDYDRDKKYGFCPETAMSTVGGNSEGAPCVFPFTFLGNKYESCTSAGRSDGKMWCATTANYDDDRKWGFCPDQGYSLFLVAAHEFGHAMGLEHSQDPGALMAPIYTYTKNFRLSQDDIKGIQELYGASPDIDLGTGPTPTLGPVTPEICKQDIVFDGIAQIRGEIFFFKDRFIWRTVTPRDKPMGPLLVATFWPELPEKIDAVYEAPQEEKAVFFAGNEYWIYSASTLERGYPKPLTSLGLPPDVQRVDAAFNWSKNKKTYIFAGDKFWRYNEVKKKMDPGFPKLIADAWNAIPDNLDAVVDLQGGGHSYFFKGAYYLKLENQSLKSVKFGSIKSDWLGC
As for B1, the “IL-12p70, mean of differences” value (5 μg/mL MMP-2, n=11 donors) was 41.7. Under “5 μg/mL MMP-2, poly(I:C) stimulation, n=11 donors”, the IL-12p70 mean inhibition is recorded as 47.8%.
